Assay results published in patent US20230331781A1, “PAR4 DERIVED PEPTIDES, ANALOGS AND USES THEREOF” (Yissum Research Development Company of the Hebrew …, priority 2019, published 2023).
“Also recorded” adds a separate entry of the source.

How the values were obtained:
PAR4 and Akt = molecular target: T1, PAR4 and Akt (Homo sapiens, UniProt P31749); assay: Inhibition of binding of PAR4 to Akt by PAR4 C-tail peptides (FIG. 3A); assay type: cell-based; settings: MDA-MB-231 cells
T1 construct: endogenous in cells; host or cells: MDA-MB-231
T1 sequence (P31749 whole entry): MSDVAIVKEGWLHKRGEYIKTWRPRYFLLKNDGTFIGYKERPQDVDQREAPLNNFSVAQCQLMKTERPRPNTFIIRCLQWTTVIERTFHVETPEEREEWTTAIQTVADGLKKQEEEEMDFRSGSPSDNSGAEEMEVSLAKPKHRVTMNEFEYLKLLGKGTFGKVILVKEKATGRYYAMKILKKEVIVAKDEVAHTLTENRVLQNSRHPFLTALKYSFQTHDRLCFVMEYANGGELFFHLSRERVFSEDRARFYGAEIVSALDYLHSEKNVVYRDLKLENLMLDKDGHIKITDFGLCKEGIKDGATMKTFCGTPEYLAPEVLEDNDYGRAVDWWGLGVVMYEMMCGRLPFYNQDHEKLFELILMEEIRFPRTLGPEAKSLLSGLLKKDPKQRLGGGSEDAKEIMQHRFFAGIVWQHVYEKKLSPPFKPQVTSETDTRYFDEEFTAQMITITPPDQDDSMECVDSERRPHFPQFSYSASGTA
Experimental: (§1) Experiments shown in FIG. 3A-3C were carried out in MDA-MB-231 cells. […] Unpaired Student's t test was used. This experiment is a representative of three independent experiments performed in triplicates. […] HEK 293T cells were transfected with wt flg-Par4 followed by AYPGKF activation of PAR4. IP was performed using anti fig abs of cells treated or not with CTP4-A peptide and immunoblotting with anti-Akt abs.
We evaluated the ability of these peptides to inhibit the binding of PAR4 to Akt protein. […] The PH-domain of Akt/PKB associates with PAR4. To elucidate whether Akt/PKB binds via its PH-domain, constructs of either wt Akt/PKB PH-domain were applied alone or an Akt/PKB-PH domain mutant R25C, impaired in its lipid binding capability of the Akt/PKB-PH domain. Transient transfections of flg-hPar4 and either wt GFP-PH-domain or PH-domain R25C mutant were carried out in HEK293 cells. Cells were activated by the PAR4 AYPGKF ligand for the indicated periods of time and the lysates were further processed for IP analysis. Distinct binding of GFP-Akt/PKB-PH domain module alone with the PAR4 C-tail was obtained (FIG. 4A). […] The mutant constructs (e.g., wt: YVSAEFRDKVRA; mutant F347L: YVSAELRDKVRA=PAR4MutF; mutant D349A: YVSAEFRAKVRA=PAR4MutD) were further evaluated for association with Akt/PKB. […]

MDA-MB-231 cells = assay: PAR4 induced Matrigel invasion of MDA-MB-231 cells; assay type: cell-based, human; settings: AYPGKF activated MDA-MB-231 cells, FIGS. 3B and 3C
PAR4-Akt association = molecular target: T2, PAR4-Akt association (Homo sapiens, UniProt P31749); assay: PAR4-Akt association, immunoprecipitation in HEK293 cells transfected with flg-Par4 and AYPGKF activated; assay type: cell-based; settings: HEK 293T cells, wt flg-Par4, AYPGKF activation, FIG. 3D
T2 construct: FLAG; expressed in transfected cells
T2 sequence (P31749 whole entry): as above
Experimental: as §1
FIG. 4A—PH-Akt module alone binds PAR4-C-tail but not mutant R25C. HEK 293 cells were transiently transfected with flg-Par4 construct and either with GFP-PH-Akt domain alone or GFP-R25C. IP of cell lysates following PAR4 AYPGKF activation was carried out using anti-flg abs. Detection of either Akt-PH domain alone associated with PAR4 was performed with anti-GFP. […] FIG. 4C—The PI3K inhibitor […] inhibits the binding of Akt to PAR4. Treatment of HEK 293 cells with LY294002 for various time points or not, following transient transfection with flg-Par4 and AYPGKF activation was performed. Cell lysates were immunoprecipitated with anti-flg antibodies, and anti-Akt was used to assess the association of Akt with the PAR4 C-tail. […] Amino acid residues of PAR4- and PAR2-PH binding motifs. FIG. 4E—mutations inserted into flg-Par4 generated flg-Par4MutE346A. HEK293 cells were transiently transfected with either wt flg-Par4 or flg-Par4MutE346A. IP of cell lysates following PAR4 activation was carried out using anti-flg abs. Detection of PAR4-Akt association was performed by anti Akt Abs. While association with wt Par4 is seen after 5 and 10 min AYPGKF PAR4 activation, when using flg-Par4 E346A no inhibition is seen and effective association with Akt is seen at 30 min activation. FIG. 4F—utations inserted into flg-Par4 generated flg-Par4Mut F347A and flg-Par4Mut D349A. HEK293 cells were transiently transfected with either wt flg-Par4 or flg-Par4Mut F347A or flg-Par4Mut D349A. IP of cell lysates following PAR4 activation was carried out using anti-f/g abs. Detection of PAR4-Akt association was performed by anti Akt Abs. While association with wt Par4 is seen after 5 min AYPGKF PAR4 activation, no such binding is obtained when using either flg-Par4 F347A or flg-Par4D349A.
HEK293 cells were transiently transfected with flg-Par4 followed by AYPGKF PAR4 activation in the presence and absence of PAR4c (4-4) within the range of 50 nM-150 μM. IP of cell lysates following different periods of activation was carried out using anti flg abs. Detection of Akt was performed by anti Akt abs. β-actin serves as a control gene for loading. […] Matrigel invasion before and after AYPGKF PAR4 activation and in the presence and absence of PAR4 c(4-4) inhibitor in the activated PAR4 cells. […] FIG. 8C—Histograms represent quantification of the cells/HPF invaded the Matrigel layer. […]

[1] = molecular target: T3, Akt/PKB (protein kinase B) (UniProt P31749 1-480, limits assumed); assay: co-IP: anti-flg IP from HEK293 cells transfected with the mutant, anti-Akt blot (FIG. 4F)
T3 construct: Endogenous Akt of human cell lines
T3 sequence (P31749 whole entry): as above
Experimental: FIG. 4A—PH-Akt module alone binds PAR₄-C-tail but not mutant R25C. HEK 293 cells were transiently transfected with flg-Par4 construct and either with GFP-PH-Akt domain alone or GFP-R25C. IP of cell lysates following PAR₄ AYPGKF activation was carried out using anti-flg abs. Detection of either Akt-PH domain alone associated with PAR₄ was performed with anti-GFP. […] FIG. 4C—The PI3K inhibitor […] inhibits the binding of Akt to PAR₄. Treatment of HEK 293 cells with LY294002 for various time points or not, following transient transfection with flg-Par4 and AYPGKF activation was performed. Cell lysates were immunoprecipitated with anti-flg antibodies, and anti-Akt was used to assess the association of Akt with the PAR₄ C-tail. […] Amino acid residues of PAR₄- and PAR₂-PH binding motifs. FIG. 4E—mutations inserted into flg-Par4 generated flg-Par4MutE346A. HEK293 cells were transiently transfected with either wt flg-Par4 or flg-Par4MutE346A. IP of cell lysates following PAR₄ activation was carried out using anti-flg abs. Detection of PAR₄-Akt association was performed by anti Akt Abs. While association with wt Par4 is seen after 5 and 10 min AYPGKF PAR₄ activation, when using flg-Par4 E346A no inhibition is seen and effective association with Akt is seen at 30 min activation. FIG. 4F—utations inserted into flg-Par4 generated flg-Par4Mut F347A and flg-Par4Mut D349A. […]

H-YVSAEFRDKVRA-OH [Peptide 1]
inhibition of interaction between PAR4 and Akt (PAR4 and Akt): effectively inhibited | inhibition of PAR4 induced Matrigel invasion (MDA-MB-231 cells; listed as CTP4-A): significantly inhibit; also recorded: attenuated | inhibition of PAR4-Akt association (IP) (PAR4-Akt association; listed as CTP4-A): inhibited; also recorded: potently inhibits

H-DTVASKASAEGG-OH [CTP4-C, downstream PAR4 C-tail peptide]
inhibition of PAR4 induced Matrigel invasion (MDA-MB-231 cells): no effect

H-RAGLFQRSPGDT-OH [CTP4-B, downstream PAR4 C-tail peptide]
inhibition of PAR4 induced Matrigel invasion (MDA-MB-231 cells): no effect | inhibition of PAR4-Akt association (IP) (PAR4-Akt association): not

B1: hPar4 D349A (receptor, human, UniProt Q96RI0 48-385, looked up)
chain: GYPGQVCANDSDTLELPDSSRALLLGWVPTRLVPALYGLVLVVGLPANGLALWVLATQAPRLPSTMLLMNLAAADLLLALALPPRIAYHLRGQRWPFGEAACRLATAALYGHMYGSVLLLAAVSLDRYLALVHPLRARALRGRRLALGLCMAAWLMAAALALPLTLQRQTFRLARSDRVLCHDALPLDAQASHWQPAFTCLALLGCFLPLLAMLLCYGATLHTLAASGRRYGHALRLTAVVLASAVAFFVPSNLLLLLHYSDPSPSAWGNLYGAYVPSLALSTLNSCVDPFIYYYVSAEFRAKVRAGLFQRSPGDTVASKASAEGGSRGMGTHSSLLQ
notes: whole, on cells; also called PAR4MutD; flg-Par4Mut D349A
binding result [1]: no binding
